T1: P(T46G,Y94F)-L(6)-Ss* PvuII/I-SceI fusion protein (artificial (Proteus vulgaris PvuII; …)
T1 chain: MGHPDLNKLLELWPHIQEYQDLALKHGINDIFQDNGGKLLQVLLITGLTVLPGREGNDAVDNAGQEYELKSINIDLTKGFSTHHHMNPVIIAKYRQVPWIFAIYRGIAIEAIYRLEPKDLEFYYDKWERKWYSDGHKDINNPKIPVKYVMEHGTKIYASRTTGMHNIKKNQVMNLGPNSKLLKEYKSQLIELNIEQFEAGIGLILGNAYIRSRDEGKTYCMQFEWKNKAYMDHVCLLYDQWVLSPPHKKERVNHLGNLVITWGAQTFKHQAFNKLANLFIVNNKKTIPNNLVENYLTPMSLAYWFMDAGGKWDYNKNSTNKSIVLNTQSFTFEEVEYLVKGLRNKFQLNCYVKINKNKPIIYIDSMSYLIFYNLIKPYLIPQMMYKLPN


Target: T1, P(T46G,Y94F)-L(6)-Ss* PvuII/I-SceI …
Assay: EMSA; 1-150 nM enzyme, 2 nM DNA, KG buffer without Mg, room temperature
Conditions: tags: C-terminal Strep-tag (vector pASK-IBA63b-plus), chain copies: 2 (inferred, PvuII homodimer)
Experimental: For the determination of binding constants of the fusion enzymes, EMSAs with radioactive labeled PCR-fragments were done. The shift fragments were created via PCR using [α³²P] dATP. One fragment contained the addressed site (S6P6S; A), just an I-SceI site (S; B) or just a PvuII site (P; C). 2 nM of the radiolabeled substrate were incubated with fusion enzyme at concentrations ranging from 1-150 nM in optimized KG Buffer without magnesium for 30 min at room temperature. After adding 1 μl 87% glycerol the samples were loaded onto a 6% polyacrylamid Tris-Acetate (pH 8.5) gel and run for 2 h at 10V/cm. The bands were visualized using the InstantImager system (Packard).

Row | Binder | binding result (label: 32P (PCR fragment)) | binding result (label: 32P (EMSA PCR fragment))
1 | S, I-SceI site only (dsDNA) DNA 1: TAGGGATAACAGGGTAAT DNA 2: ATTACCCTGTTATCCCTA | no binding | 
2 | S6P6S tripartite site I-SceI-PvuII-I-SceI (dsDNA) DNA 1: TAGGGATAACAGGGTAATGGTACTCAGCTGATTCATATTACCCTGTTATCCCTA DNA 2: TAGGGATAACAGGGTAATATGAATCAGCTGAGTACCATTACCCTGTTATCCCTA |  | binds

Source: patent US20140208457, “Nuclease Fusion Protein and Uses Thereof” (BASF PLANT SCIENCE COMPANY GMBH, published 2014)
